# Molecular target: T1, SARS-CoV-2 spike RBD (as in the cryo-EM complex with REGN10933 and REGN10987 Fabs) (SARS-CoV-2, UniProt P0DTC2)
# T1 construct: also called SARS-CoV-2 RBD
# Experiment: cryo-EM structure; single-particle cryo-EM of SARS-CoV-2 spike RBD bound to Fab fragments of REGN10933 and REGN10987, nominal resolution 3.9 Å
# Details: both partners purified
row,Binder,binding result
1,"Fab fragment of REGN10987 (Fab, V domains shown, also called REGN10987 Fab) VH: QVQLVESGGGVVQPGRSLRLSCAASGFTFSNYAMYWVRQAPGKGLEWVAVISYDGSNKYYADSVKGRFTISRDNSKNTLYLQMNSLRTEDTAVYYCASGSDYGDYLLVYWGQGTLVTVSS VL: QSALTQPASVSGSPGQSITISCTGTSSDVGGYNYVSWYQQHPGKAPKLMIYDVSKRPSGVSNRFSGSKSGNTASLTISGLQSEDEADYYCNSLTSISTWVFGGGTKLTVL",binds
2,"Fab fragment of REGN10933 (Fab, V domains shown, also called REGN10933 Fab) VH: QVQLVESGGGLVKPGGSLRLSCAASGFTFSDYYMSWIRQAPGKGLEWVSYITYSGSTIYYADSVKGRFTISRDNAKSSLYLQMNSLRAEDTAVYYCARDRGTTMVPFDYWGQGTLVTVSS VL: DIQMTQSPSSLSASVGDRVTITCQASQDITNYLNWYQQKPGKAPKLLIYAASNLETGVPSRFSGSGSGTDFTFTISGLQPEDIATYYCQQYDNLPLTFGGGTKVEIK",binds

# — PMC7299284, “Studies in humanized mice and convalescent humans yield a SARS-CoV-2 antibody cocktail” (Science (New York, N.y.), 2020)
